Measured values published in patent US20210355194A1 (TWIST BIOSCIENCE, published 2021).

B1: 10-40 (VHH)
VHH: EVQLVESGGGLVQPGGSLRLSCAASGRTFSTYTMGWFRQAPGKEREFVARIWRSGGNTYYADSVKGRFTISADNSKNTAYLQMNSLKPEDTAVYYCARGVRGVFRAYFDHWGQGTLVTVSS
B2: 10-45 (VHH)
VHH: EVQLVESGGGLVQPGGSLRLSCAASGRTFSWYPMGWFRQAPGKEREFVASISWGGARTYYADSVKGRFTISADNSKNTAYLQMNSLKPEDTAVYYCARSTGPRGSGRYRAHWFDSWGQGTLVTVSS
B3: 10-57 (VHH)
VHH: EVQLVESGGGLVQPGGSLRLSCAASGRTFSRYAMGWFRQAPGKEREFVASITKFGSTNYADSVKGRFTISADNSKNTAYLQMNSLKPEDTAVYYCAKERESRFLKWRKTDWGQGTLVTVSS
B4: 10-17 (VHH)
VHH: EVQLVESGGGLVQPGGSLRLSCAASGRTFSIYAMGWFRQAPGKEREFVARITRGGITKYADSVKGRFTISADNSKNTAYLQMNSLKPEDTAVYYCARGLGWLLGYYWGQGTLVTVSS
B5: 10-42 (VHH)
VHH: EVQLVESGGGLVQPGGSLRLSCAASGITIRTHAMGWFRQAPGKEREFVATISRSGGNTYYADSVKGRFTISADNSKNTAYLQMNSLKPEDTAVYYCTTAGVLRYFDWFRRPYWGQGTLVTVSS
B6: 10-18 (VHH)
VHH: EVQLVESGGGLVQPGGSLRLSCAASGRMYNSYSMGWFRQAPGKEREFVARISPGGTFYADSVKGRFTISADNSKNTAYLQMNSLKPEDTAVYYCTTSARSGWFWRYFDSWGQGTLVTVSS
B7: 10-54 (VHH)
VHH: EVQLVESGGGLVQPGGSLRLSCAASGRTFSSARMGWFRQAPGKEREFVAGINMISSTKYADSVKGRFTISADNSKNTAYLQMNSLKPEDTAVYYCAHFRRFLPRGYVDYWGQGTLVTVSS
B8: variant 6-43 (Fc fusion)
VHH: EVQLVESGGGLVQPGGSLRLSCAASGRTFSSYAMMGWFRQAPGKEREFVASVNWDASQINYADSVKGRFTISADNSKNTAYLQMNSLKPEDTAVYYCTTLGAVYFDSSGYHDYFDYWGQGTLVTVSS
B9: 10-31 (VHH)
VHH: EVQLVESGGGLVQPGGSLRLSCAASGRTFGSYGMGWFRQAPGKEREFVATISIGGRTYYADSVKGRFTISADNSKNTAYLQMNSLKPEDTAVYYCARGSGSGFMWYHGNNNYDRWRYWGQGTLVTVSS
B10: 10-52 (VHH)
VHH: EVQLVESGGGLVQPGGSLRLSCAASGRFFSICSMGWFRQAPGKEREFVAGINWRSGGSTYYADSVKGRFTISADNSKNTAYLQMNSLKPEDTAVYYCARGSGWWEYWGQGTLVTVSS
B11: 10-48 (VHH)
VHH: EVQLVESGGGLVQPGGSLRLSCAASGRTFRRYAMGWFRQAPGKEREFVAAINRSGSTEYADSVKGRFTISADNSKNTAYLQMNSLKPEDTAVYYCARQHQDFWTGYYTVWGQGTLVTVSS
B12: 10-41 (VHH)
VHH: EVQLVESGGGLVQPGGSLRLSCAASGRNLRMYRMGWFRQAPGKEREFVALISRVGVTSYADSVKGRFTISADNSKNTAYLQMNSLKPEDTAVYYCARGTSFFNFWSGSLGRVGFDSWGQGTLVTVSS
B13: 10-43 (VHH)
VHH: EVQLVESGGGLVQPGGSLRLSCAASGRTFRRYHMGWFRQAPGKEREFVAAITSGGRTNYADSVKGRFTISADNSKNTAYLQMNSLKPEDTAVYYCTTDGLRYFDWFPWASAFDIWGQGTLVTVSS
B14: variant 6-103 (Fc fusion)
VHH: EVQLVESGGGLVQPGGSLRLSCAASGRTSSPIAMGWFRQAPGKEREPVAVRWSDDYTYYADSVKGRFTISADNSKNTAYLQMNSLKPEDTAVYYCAKKLGGYYAFDIWGQGTLVTVSS
B15: 9-3 (VHH)
VHH: EVQLVESGGGLVQPGGSLRLSCAASGRTFSRYAMGWFRQAPGKEREFVAAISRSGKSTYYADSVKGRFTISADNSKNTAYLQMNSLKPEDTAVYYCAASSVFSDLRYRKNPKWGQGTLVTVSS
B16: 10-47 (VHH)
VHH: EVQLVESGGGLVQPGGSLRLSCAASGRPLRRYVMGWFRQAPGKEREFVAAITNGGSTKYADSVKGRFTISADNSKNTAYLQMNSLKPEDTAVYYCARGTPWRLLWFGTLGPPPAFDYWGQGTLVTVSS
B17: variant 6-5 (Fc fusion)
VHH: EVQLVESGGGLVQPGGSLRLSCAASGRTFTMGWFRQAPGKEREFVASTNSAGSTNYADSVNGRFTISADNSKNTAYLQMNSLKPEDTAVYYCTTVDQYFDYWGQGTLVTVSS
B18: 10-22 (VHH)
VHH: EVQLVESGGGLVQPGGSLRLSCAASGRTYYAMGWFRQAPGKEREFVGAIDWSGRRITYADSVKGRFTISADNSKNTAYLQMNSLKPEDTAVYYCARVRFSRLGGVIGRPIDSWGQGTLVTVSS
B19: variant 6-9 (Fc fusion)
VHH: EVQLVESGGGLVQPGGSLRLSCAASGFTFDYYAMGWFRQAPGKEREFVSAIDSEGRTSYADSVKGRFTISADNSKNTAYLQMNSLKPEDTAVYYCARWGPFDIWGQGTLVTVSS
B20: 10-5 (VHH)
VHH: EVQLVESGGGLVQPGGSLRLSCAASGRSLGIYRMGWFRQAPGKEREFVAAITSGGRKNYADSVKGRFTISADNSKNTAYLQMNSLKPEDTAVYYCAKRTIFGVGRWLDPWGQGTLVTVSS
B21: 10-13 (VHH)
VHH: EVQLVESGGGLVQPGGSLRLSCAASGGLTFSSNTMGWFRQAPGKEREFVASISSSGRTSYADSVKGRFTISADNSKNTAYLQMNSLKPEDTAVYYCARRVRRLWFRSYFDLWGQGTLVTVSS
B22: variant 6-2 (Fc fusion)
VHH: EVQLVESGGGLVQPGGSLRLSCAASGFTMSSSWMGWFRQAPGKEREFVTVISGVGTSYADSVKGRFTISADNSKNTAYLQMNSLKPEDTAVYYCARGPDSSGYGFDYWGQGTLVTVSS
B23: variant 6-37 (Fc fusion)
VHH: EVQLVESGGGLVQPGGSLRLSCAASGHTFSTSWMGWFRQAPGKEREFVATINSLGGTNYADSVKGRFTISADNSKNTAYLQMNSLKPEDTAVYYCARVSSGDYGMDVWGQGTLVTVSS
B24: 10-28 (VHH)
VHH: EVQLVESGGGLVQPGGSLRLSCAASGSIFSIGMGWFRQAPGKEREFVARIWWRSGATYYADSVKGRFTISADNSKNTAYLQMNSLKPEDTAVYYCAAISIFGRLKWGQGTLVTVSS
B25: variant 6-63 (Fc fusion)
VHH: EVQLVESGGGLVQPGGSLRLSCAASGQTFNMGWFRQAPGKEREFVAAIGSGGSTSYADSVKGRFTISADNSKNTAYLQMNSLKPEDTAVYYCWRLGNDYFDYWGQGTLVTVSS
notes: also called VHH nanobody 6-63
B26: 10-50 (VHH)
VHH: EVQLVESGGGLVQPGGSLRLSCAASGRTLSTYNMGWFRQAPGKEREFVASISRFGRTNYADSVKGRFTISADNSKNTAYLQMNSLKPEDTAVYYCARRGKLSAAMHWFDPWGQGTLVTVSS
B27: 9-1 (VHH)
VHH: EVQLVESGGGLVQPGGSLRLSCAASGRTFSRLAMGWFRQAPGKEREFVAAISRSGRSTSYADSVKGRFTISADNSKNTAYLQMNSLKPEDTAVYYCAARRSQILFTSRTDYEWGQGTLVTVSS
B28: variant 6-52 (Fc fusion)
VHH: EVQLVESGGGLVQPGGSLRLSCAASGDTYGSYWMGWFRQAPGKEREVVAAITSGGSTVYADSVKGRFTISADNSKNTAYLQMNSLKPEDTAVYYCARVDSRFDYWGQGTLVTVSS
B29: 10-26 (VHH)
VHH: EVQLVESGGGLVQPGGSLRLSCAASGRTFSGFTMSSTWMGWFRQAPGKEREFVAGIITNGSTNYADSVKGRFTISADNSKNTAYLQMNSLKPEDTAVYYCARRVAYSSFWSGLRKHMDVWGQGTLVTVSS
B30: 10-30 (VHH)
VHH: EVQLVESGGGLVQPGGSLRLSCAASGRTFSSFRFRAMGWFRQAPGKEREFVALIFSGGSTYYADSVKGRFTISADNSKNTAYLQMNSLKPEDTAVYYCAREWGRWLQRGSYWGQGTLVTVSS
B31: 10-11 (VHH)
VHH: EVQLVESGGGLVQPGGSLRLSCAASGRNFRRNSMGWFRQAPGKEREFVAGISWSGARTHYADSVKGRFTISADNSKNTAYLQMNSLKPEDTAVYYCARVSRRPRSPPGYYYGMDVWGQGTLVTVSS
B32: 10-9 (VHH)
VHH: EVQLVESGGGLVQPGGSLRLSCAASGIPFRSRTMGWFRQAPGKEREFVAGITGSGRSQYYADSVKGRFTISADNSKNTAYLQMNSLKPEDTAVYYCARGARIFGSVAPWRGGNYYGMDVWGQGTLVTVSS
B33: variant 6-46 (Fc fusion)
VHH: EVQLVESGGGLVQPGGSLRLSCAASGLTFSAMGWFRQAPGKEREFVALIRRDGSTIYADSVKGRFTISADNSKNTAYLQMNSLKPEDTAVYYCAALGILFGYDAFDIWGQGTLVTVSS
B34: 9-8 (VHH)
VHH: EVQLVESGGGLVQPGGSLRLSCAASGRTFRRYPMGWFRQAPGKEREFVAAISRSGGSTYYADSVKGRFTISADNSKNTAYLQMNSLKPEDTAVYYCAAKRLRSFASGGSYDWGQGTLVTVSS

Tests used:
[1] = target: SARS-CoV-2 membrane protein on expressing cells (SARS-CoV-2, UniProt P0DTC5 1-222)
[2] = target: T1, Acro SARS-CoV-2 (COVID-19) S1 protein (SARS-CoV-2, UniProt P0DTC2 16-685); experiment: SPR
T1 construct: also called SARS-CoV-2 S1

Binder	MFI Ratio [1]	Kd [2] [µM]
B1	3.78	
B2	6.69	
B3	1.79	
B4	1.59	
B5	1.74	
B6	8.06	
B7	1.78	
B8		0.0179
B9	1.66	
B10	4.11	
B11	4.11	
B12	1.75	
B13	1.55	
B14		0.0236
B15	1.61	
B16	1.62	
B17		0.0249

Binder	MFI Ratio [1]	Kd [2] [µM]
B18	4.47	
B19		0.0185
B20	1.59	
B21	8.83	
B22		0.0299
B23		0.0225
B24	2.06	
B25		0.0218
B26	1.72	
B27	8.19	
B28		0.0312
B29	5.2	
B30	1.57	
B31	1.56	
B32	1.61	
B33		0.0181
B34	3.76	
